Here are results for four molecules from paper PMC2557045.

The target in data set [1] is atToc159-A864R (expressed from CaMV35S::atTOC159-A864R in ppi2 plants, A864R:ppi2) (Arabidopsis thaliana) (UniProt O81283). Kind of data set: cross-linking.
Substrate in data set [2]: Nc1nc2c(ncn2[C@@H]2O[C@H](COP(=O)(O)OP(=O)(O)OP(=O)(O)O)[C@@H](O)[C@H]2O)c(=O)[nH]1
Kind of data set: GTP hydrolysis assay, immunoprecipitated protein on Sepharose beads. The data set is classed as biochemical, Arabidopsis thaliana. As to conditions: antibody/protein A-Sepharose-bound receptor.

Substrate in data set [3]: Nc1nc2c(ncn2[C@@H]2O[C@H](COP(=O)(O)OP(=O)(O)OP(=O)(O)O)[C@@H](O)[C@H]2O)c(=O)[nH]1
As to the kind of experiment: GTP hydrolysis assay, purified soluble G-domain. In kind it is biochemical, Arabidopsis thaliana.

“preSSu ([35S]-labeled chloroplast preprotein) (natural protein)” came in with a fold of coimmunoprecipitated preSSu against wild-type atToc159 in data set [1] of 3 fold.

B1: atToc159 (full-length) (Arabidopsis thaliana) (protein)
chain: MDSKSVTPEPTNPFYASSGQSGKTYASVVAAAAAAAADKEDGGAVSSAKELDSSSEAVSGNSDKVGADDLSDSEKEKPNLVGDGKVSDEVDGSLKEDSTTPEATPKPEVVSGETIGVDDVSSLSPKPEAVSDGVGVVEENKKVKEDVEDIKDDGESKIENGSVDVDVKQASTDGESESKVKDVEEEDVGTKKDDEGESELGGKVDVDDKSDNVIEEEGVELTDKGDVIVNSSPVESVHVDVAKPGVVVVGDAEGSEELKINADAETLEVANKFDQIGDDDSGEFEPVSDKAIEEVEEKFTSESDSIADSSKLESVDTSAVEPEVVAAESGSEPKDVEKANGLEKGMTYAEVIKAASAVADNGTKEEESVLGGIVDDAEEGVKLNNKGDFVVDSSAIEAVNVDVAKPGVVVVGDVEVSEVLETDGNIPDVHNKFDPIGQGEGGEVELESDKATEEGGGKLVSEGDSMVDSSVVDSVDADINVAEPGVVVVGAAKEAVIKEDDKDDEVDKTISNIEEPDDLTAAYDGNFELAVKEISEAAKVEPDEPKVGVEVEELPVSESLKVGSVDAEEDSIPAAESQFEVRKVVEGDSAEEDENKLPVEDIVSSREFSFGGKEVDQEPSGEGVTRVDGSESEEETEEMIFGSSEAAKQFLAELEKASSGIEAHSDEANISNNMSDRIDGQIVTDSDEDVDTEDEGEEKMFDTAALAALLKAATGGGSSEGGNFTITSQDGTKLFSMDRPAGLSSSLRPLKPAAAPRANRSNIFSNSNVTMADETEINLSEEEKQKLEKLQSLRVKFLRLLQRLGHSAEDSIAAQVLYRLALLAGRQAGQLFSLDAAKKKAVESEAEGNEELIFSLNILVLGKAGVGKSATINSILGNQIASIDAFGLSTTSVREISGTVNGVKITFIDTPGLKSAAMDQSTNAKMLSSVKKVMKKCPPDIVLYVDRLDTQTRDLNNLPLLRTITASLGTSIWKNAIVTLTHAASAPPDGPSGTPLSYDVFVAQCSHIVQQSIGQAVGDLRLMNPSLMNPVSLVENHPLCRKNREGVKVLPNGQTWRSQLLLLCYSLKVLSETNSLLRPQEPLDHRKVFGFRVRSPPLPYLLSWLLQSRAHPKLPGDQGGDSVDSDIEIDDVSDSEQEDGEDDEYDQLPPFKPLRKTQLAKLSNEQRKAYFEEYDYRVKLLQKKQWREELKRMKEMKKNGKKLGESEFGYPGEEDDPENGAPAAVPVPLPDMVLPPSFDSDNSAYRYRYLEPTSQLLTRPVLDTHGWDHDCGYDGVNAEHSLALASRFPATATVQVTKDKKEFNIHLDSSVSAKHGENGSTMAGFDIQNVGKQLAYVVRGETKFKNLRKNKTTVGGSVTFLGENIATGVKLEDQIALGKRLVLVGSTGTMRSQGDSAYGANLEVRLREADFPIGQDQSSFGLSLVKWRGDLALGANLQSQVSVGRNSKIALRAGLNNKMSGQITVRTSSSDQLQIALTAILPIAMSIYKSIRPEATNDKYSMY
As usually defined, the Km is the concentration of substrate that gives half-maximal velocity. In general, kcat refers to the maximal rate divided by the concentration of active sites. Take B1: in data set [2], the Km worked out at 3.2 ± 0.34 µM and the kcat stood at 0.000233 ± 3.67e-05 s⁻¹.

B2: atToc159 (full-length) (Arabidopsis thaliana; A864R) (protein)
chain: MDSKSVTPEPTNPFYASSGQSGKTYASVVAAAAAAAADKEDGGAVSSAKELDSSSEAVSGNSDKVGADDLSDSEKEKPNLVGDGKVSDEVDGSLKEDSTTPEATPKPEVVSGETIGVDDVSSLSPKPEAVSDGVGVVEENKKVKEDVEDIKDDGESKIENGSVDVDVKQASTDGESESKVKDVEEEDVGTKKDDEGESELGGKVDVDDKSDNVIEEEGVELTDKGDVIVNSSPVESVHVDVAKPGVVVVGDAEGSEELKINADAETLEVANKFDQIGDDDSGEFEPVSDKAIEEVEEKFTSESDSIADSSKLESVDTSAVEPEVVAAESGSEPKDVEKANGLEKGMTYAEVIKAASAVADNGTKEEESVLGGIVDDAEEGVKLNNKGDFVVDSSAIEAVNVDVAKPGVVVVGDVEVSEVLETDGNIPDVHNKFDPIGQGEGGEVELESDKATEEGGGKLVSEGDSMVDSSVVDSVDADINVAEPGVVVVGAAKEAVIKEDDKDDEVDKTISNIEEPDDLTAAYDGNFELAVKEISEAAKVEPDEPKVGVEVEELPVSESLKVGSVDAEEDSIPAAESQFEVRKVVEGDSAEEDENKLPVEDIVSSREFSFGGKEVDQEPSGEGVTRVDGSESEEETEEMIFGSSEAAKQFLAELEKASSGIEAHSDEANISNNMSDRIDGQIVTDSDEDVDTEDEGEEKMFDTAALAALLKAATGGGSSEGGNFTITSQDGTKLFSMDRPAGLSSSLRPLKPAAAPRANRSNIFSNSNVTMADETEINLSEEEKQKLEKLQSLRVKFLRLLQRLGHSAEDSIAAQVLYRLALLAGRQAGQLFSLDAAKKKAVESEAEGNEELIFSLNILVLGKRGVGKSATINSILGNQIASIDAFGLSTTSVREISGTVNGVKITFIDTPGLKSAAMDQSTNAKMLSSVKKVMKKCPPDIVLYVDRLDTQTRDLNNLPLLRTITASLGTSIWKNAIVTLTHAASAPPDGPSGTPLSYDVFVAQCSHIVQQSIGQAVGDLRLMNPSLMNPVSLVENHPLCRKNREGVKVLPNGQTWRSQLLLLCYSLKVLSETNSLLRPQEPLDHRKVFGFRVRSPPLPYLLSWLLQSRAHPKLPGDQGGDSVDSDIEIDDVSDSEQEDGEDDEYDQLPPFKPLRKTQLAKLSNEQRKAYFEEYDYRVKLLQKKQWREELKRMKEMKKNGKKLGESEFGYPGEEDDPENGAPAAVPVPLPDMVLPPSFDSDNSAYRYRYLEPTSQLLTRPVLDTHGWDHDCGYDGVNAEHSLALASRFPATATVQVTKDKKEFNIHLDSSVSAKHGENGSTMAGFDIQNVGKQLAYVVRGETKFKNLRKNKTTVGGSVTFLGENIATGVKLEDQIALGKRLVLVGSTGTMRSQGDSAYGANLEVRLREADFPIGQDQSSFGLSLVKWRGDLALGANLQSQVSVGRNSKIALRAGLNNKMSGQITVRTSSSDQLQIALTAILPIAMSIYKSIRPEATNDKYSMY
Regarding B2, in data set [2], the Km was 1.9 ± 0.30 µM and the kcat is 7e-05 ± 1.7e-06 s⁻¹.

B3: atToc159 G-domain (atToc159G) (Arabidopsis thaliana) (protein)
chain: IFSLNILVLGKAGVGKSATINSILGNQIASIDAFGLSTTSVREISGTVNGVKITFIDTPGLKSAAMDQSTNAKMLSSVKKVMKKCPPDIVLYVDRLDTQTRDLNNLPLLRTITASLGTSIWKNAIVTLTHAASAPPDGPSGTPLSYDVFVAQCSHIVQQSIGQAVGDLRLMNPSLMNPVSLVENHPLCRKNREGVKVLPNGQTWRSQLLLLCYSLKVLSETNSLLRPQEPLDHRK
For B3, in data set [3], the Km is 9.0 ± 1.35 µM and the kcat was 0.000317 ± 2.5e-05 s⁻¹.
